Target: T1, soluble Wnt decoy receptor sLRP6E1E2 (FLAG-tagged E1 and E2 extracellular domains of LRP6) (Homo sapiens (Human), UniProt O75581 20-651)
T1 construct: Expressed in the assay cells from the adenoviral vector dE1-k35/sLRP6E1E2 and not added as purified protein; also called soluble LRP6 receptor; decoy Wnt receptor; not shown: FLAG tag
T1 sequence: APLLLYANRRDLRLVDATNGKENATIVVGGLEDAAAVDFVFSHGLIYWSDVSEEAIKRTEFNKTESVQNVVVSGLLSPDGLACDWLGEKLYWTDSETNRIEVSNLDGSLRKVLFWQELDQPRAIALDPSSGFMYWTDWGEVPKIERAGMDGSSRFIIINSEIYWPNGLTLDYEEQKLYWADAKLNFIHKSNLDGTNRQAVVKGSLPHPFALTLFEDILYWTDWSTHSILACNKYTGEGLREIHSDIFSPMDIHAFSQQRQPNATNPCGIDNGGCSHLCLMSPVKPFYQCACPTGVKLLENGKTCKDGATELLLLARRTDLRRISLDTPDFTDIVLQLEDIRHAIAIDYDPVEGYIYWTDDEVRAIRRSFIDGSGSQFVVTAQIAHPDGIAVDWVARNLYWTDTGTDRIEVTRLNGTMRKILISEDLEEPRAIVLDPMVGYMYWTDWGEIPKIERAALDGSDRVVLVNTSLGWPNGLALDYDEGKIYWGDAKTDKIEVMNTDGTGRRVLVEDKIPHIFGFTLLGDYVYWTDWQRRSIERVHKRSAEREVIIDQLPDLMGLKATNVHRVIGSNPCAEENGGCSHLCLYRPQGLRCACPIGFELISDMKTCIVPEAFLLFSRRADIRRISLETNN
Assay: immunoprecipitation of lysates of transduced H322 and H460 cells with anti-Wnt3a or anti-LRP6, then western blot
Protocol: FIG. 1 represents characterization of the decoy Wnt receptor sLRP6E1E2. FIG. 1a is schematic representation of the genomic structure of Ad vectors used. […] Cell culture supernatants were assessed with FLAG- or LRP6-specific Ab. (d) H322 and H460 cells were transduced with dE1-k35/LacZ or dE1-k35/sLRP6E1E2 (50 MOI) for 48 hr. Cell lysates were immunoprecipitated with antisera against Wnt3a (IP: Wnt3a) or LRP6 (IP: LRP6) followed by western blot (WB) analysis with the same antibodies.
Next, binding of sLRP6E1E2 to Wnt3a was assessed in cells transduced with dE1-k35/LacZ or dE1-k35/sLRP6E1E2. Cell lysates were immunoprecipitated with anti-Wnt3a or anti-LRP6 antibodies and analyzed by western blot.

B1: Wnt3a, endogenous in human non-small cell lung cancer cell lines H322 and H460 (ligand, UniProt P56704 19-352, looked up)
chain: SYPIWWSLAVGPQYSSLGSQPILCASIPGLVPKQLRFCRNYVEIMPSVAEGIKIGIQECQHQFRGRRWNCTTVHDSLAIFGPVLDKATRESAFVHAIASAGVAFAVTRSCAEGTAAICGCSSRHQGSPGKGWKWGGCSEDIEFGGMVSREFADARENRPDARSAMNRHNNEAGRQAIASHMHLKCKCHGLSGSCEVKTCWWSQPDFRAIGDFLKDKYDSASEMVVEKHRESRGWVETLRPRYTYFKVPTERDLVYYEASPNFCEPNPETGSFGTRDRTCNVSSHGIDGCDLLCCGRGHNARAERRREKCRCVFHWCCYVSCQECTRVYDVHTCK
notes: Present in cell lysates in the immunoprecipitation; also called Wnt 3a protein
B1: binds.

Reference: patent publication US20140315825A1 (GENEMEDICINE, published 2014)
